From patent US20250304675A1 (MHS CARE INNOVATION, published 2025)
Changes are numbered by the printed parent chain.

How the values were obtained:
[1] = biological target: human gastric inhibitory polypeptide (glucose-dependent insulinotropic polypeptide) (human)
[2] = biological target: T1, human gastric inhibitory polypeptide (glucose-dependent insulinotropic polypeptide) (human); experiment: direct binding ELISA, CHO supernate on coated human GIP; 9th of 10 in the printed order
T1 construct: also called human GIP; hGIP
T1 peptide: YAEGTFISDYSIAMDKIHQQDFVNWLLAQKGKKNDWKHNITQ
Description: (§1) CHO cells co-transfected with the mammalian expression vectors were grown in culture and the supernate collected. The supernate was evaluated for the presence of GIP-binding mAbs by direct binding ELISA Human GIP was fixed to the bottom of the wells on 96-well plates. Serial dilutions of the supernate were added to different wells of the 96-well plate. After a one hour incubation, the wells were washed twice with PBS before a secondary antibody that specifically binds to human IgG was added to each well. The antibody that specifically binds to human IgG was conjugated with the enzyme horse radish peroxidase (HRP). After incubation for one hour, the wells were washed with PBS before the HRP substrate was added. If HRP was present in a well, the substrate was converted to a colored compound. The amount of color intensity was read using a spectrophotometer. The amount of color produced was proportional to the amount of HRP-antibody conjugate remaining in each well. The amount of color produced was also proportional to the amount of mAb bound to hGIP in each well.

[3] = biological target: T1, human gastric inhibitory polypeptide …; experiment: direct binding ELISA, CHO supernate on coated human GIP; 3rd of 10 in the printed order
Description: as §1

[4] = biological target: T1, human gastric inhibitory polypeptide …; experiment: direct binding ELISA, CHO supernate on coated human GIP; 6th of 10 in the printed order
Description: as §1

[5] = biological target: T1, human gastric inhibitory polypeptide …; experiment: direct binding ELISA, CHO supernate on coated human GIP; 10th of 10 in the printed order
Description: as §1

[6] = biological target: T2, gastric inhibitory polypeptide (GIP), species not stated at the place of the result (Homo sapiens (Human), UniProt P09681 52-93); experiment: modified Schild's assay plot, reporter cell line expressing GIP receptors (derived from a functional assay)
T2 peptide: T1 peptide

[7] = biological target: T1, human gastric inhibitory polypeptide …; experiment: direct binding ELISA, CHO supernate on coated human GIP; 7th of 10 in the printed order
Description: as §1

[8] = biological target: T1, human gastric inhibitory polypeptide …; experiment: direct binding ELISA, CHO supernate on coated human GIP; 4th of 10 in the printed order
Description: as §1

[9] = biological target: T2, gastric inhibitory polypeptide (GIP), …; experiment: hybridoma screening; assay not further stated

## Fc
[1]
  Relative Activity (beta-galactosidase of LGIPR3a reporter cells expressing rat GIPR; Fc mixed with 0.1 nM hGIP; bar as high as that of GIP alone, 0.098, so no neutralization): 0.105

B1: LC1/HC3 humanized antibody (antibody, V domains shown)
VH: QVQLQESGAEVKKPGASVKVSCKASGFNIRDYYLHWVRQAPGQGLEWMGWIDPENGDTEYAPKFQGRVTTTADTSISTAYMELSRLRSDDTAVYYCNVYGIYFMDYWGQGTLVTVSS
VL: DIQMTQSPSSVSASVGDRVTITCRASSSISSNSLHWYQQKPGKAPKLLIYRTSSLQSGVPSRFSGSGSGTDYTLTISSLQPEDFATYYCQQGSSFPRMLTFGQGTKLEIKR
notes: Tested as CHO supernate
[2]
  binding result: binds

B2: LC3/HC2 humanized antibody (antibody, V domains shown)
VH: QVQLVQSGAEVKKPGATVKISCKASGFNIRDYYLHWVQQAPGKGLEWMGWIDPENGDTEYAPKFQGRVTITADTSTNTAYMELSSLRSEDTAVYYCNVYGIYFMDYWGQGTMVTVSS
VL: DIQMTQSPGTLSLSPGERATLSCRASSSISSNSLHWYQQKPGQAPRLLIYRTSNRATGIPARFSGSGSGTDYTLTISSLEPEDFAVYYCQQGSSFPRMLTFGGGTKVEIKR
notes: Tested as CHO supernate
[3]
  binding result: binds

B3: LC3/HC1 humanized antibody (antibody, V domains shown)
VH: B2 VH with A24V, N77D
VL: B2 VL
notes: Tested as CHO supernate
[4]
  binding result: binds

B4: LC3/HC3 humanized antibody (antibody, V domains shown)
VH: B1 VH
VL: B2 VL
notes: Tested as CHO supernate
[5]
  binding result: binds

B5: LC2/HC2 humanized antibody (antibody, V domains shown)
VH: B2 VH
VL: B1 VL with M4L, S54N
notes: CHO supernate in the ELISA; Protein A purified in the neutralization assay; also called mAbH; GIP mAbH
[6]
  Kd: 2200 nM

B6: LC1/HC1 humanized antibody (antibody, V domains shown)
VH: B2 VH with A24V, N77D
VL: B1 VL
notes: Tested as CHO supernate
[7]
  binding result: binds

B7: LC1/HC2 humanized antibody (antibody, V domains shown)
VH: B2 VH
VL: B1 VL
notes: Tested as CHO supernate
[8]
  binding result: binds

B8: 10g10 monoclonal antibody (original mouse mAb) (antibody, V domains shown)
VH: QVQLQESGAELVRSGASVKLSCTASGFNIRDYYLHWIKQRPEQGLEWIGWIDPENGDTEYAPKFQDKATVTADTSSNTAYLQLNSLTSEDTAVYYCNVYGIYFMDYWGQGTTVTVSS
VL: DIQLTQSPSTMAASPGEKITITCSASSSISSNSLHWYQQKPGFSPKLLIYRTSNLASGVPGRFSGSGSGTSYSLTIGTMETEDVATYYCQQGSSFPRMLTFGTGTKLEIKR
notes: Mouse hybridoma antibody; also called 10g10 mAb; 10g10 GIP mAb
[6]
  Kd: 3200 nM

B9: 14B9 antibody (antibody, V domains shown)
VH: QVQLQESGAALVRSGASVKLSCTASGFNIKDYYFHWVKQRPDQGLEWIGWIDPENGDTEYAPNFQVKATMTADTYSNTAYLHLSSLTSEDTAVYYCNSYGNNYFDYWGQGTTVTVSS
VL: DIQLTQSPAIMAASLGQKVTMTCSASSSVSSSYLHWYQQKSGASPKSLIHRTSNLASGVPARFSGSGSGTSYSLTISSVEAEDDATYYCLQWSGFPFTFGSGTKLEIKR
notes: Comparison antibody
[9]
  binding result: no binding
